Results: patent US20250207140

Biological target: SARS-CoV-2 spike protein (original strain) (SARS-CoV-2) (UniProt P0DTC2)
Test: flow

Control (-) Apt targeting CD8
Kd: 312 nM
